Drawing on patent US20180282412A1, this text covers Kd and EC50 (read off the curve) for one substance.

The target of assay [1] is PD-1-Fc fusion protein (extracellular region of human PD-1 fused to human Fc) (human). The assay is described as follows: SPR (Biacore), PD-1-Fc immobilized, antibody as analyte.
The target is the same in assay [2]. The assay is described as follows: ELISA on coated PD-1-Fc, HRP anti-human kappa.

PD-1-Fc fusion protein (extracellular region of human PD-1 fused to human Fc) (human), sequence (chain, as listed by the source limits assumed): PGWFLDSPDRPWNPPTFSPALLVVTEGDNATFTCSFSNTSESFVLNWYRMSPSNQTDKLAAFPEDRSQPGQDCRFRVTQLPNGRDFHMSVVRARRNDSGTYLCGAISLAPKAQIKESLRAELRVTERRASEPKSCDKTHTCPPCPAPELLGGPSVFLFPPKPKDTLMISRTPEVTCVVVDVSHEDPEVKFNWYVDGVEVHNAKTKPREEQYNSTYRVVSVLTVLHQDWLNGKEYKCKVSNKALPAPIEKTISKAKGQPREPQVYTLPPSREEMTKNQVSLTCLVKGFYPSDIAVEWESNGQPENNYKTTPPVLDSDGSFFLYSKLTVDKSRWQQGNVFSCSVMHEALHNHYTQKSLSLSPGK

Nivolumab (antibody) displayed a Kd in assay [1] of 0.0212 nM. The same substance yielded an EC50 (read off the curve) in assay [2] of 40 ng/mL.
